Measured values: publication PMC3419727, “Identifying the Hotspots on the Top Faces of WD40-Repeat Proteins from Their Primary Sequences by β-Bulges and DHSW Tetrads” (PLoS ONE, 2012)
Changes are numbered by the printed parent chain.

Key:
Assay in all cases: ITC; Fep1 (~1.4 mM) injected, 2 µl each time, into Tup11 WT or mutant (~0.2 mM); 25°C; 1×PBS pH 7.4, 150 mM NaCl; iTC200 (MicroCal); Fep1 into buffer subtracted as background
Conditions in all cases: both partners purified
[1] = target: T1, S. japonicus Tup11 WD40 domain (301–630) Leu524Ala (S. japonicus, UniProt B6JV84 301-630, Leu524Ala)
T1 construct: Tup11, S. japonicus, WD40 domain, amino acids 301-630
T1 sequence (looked up): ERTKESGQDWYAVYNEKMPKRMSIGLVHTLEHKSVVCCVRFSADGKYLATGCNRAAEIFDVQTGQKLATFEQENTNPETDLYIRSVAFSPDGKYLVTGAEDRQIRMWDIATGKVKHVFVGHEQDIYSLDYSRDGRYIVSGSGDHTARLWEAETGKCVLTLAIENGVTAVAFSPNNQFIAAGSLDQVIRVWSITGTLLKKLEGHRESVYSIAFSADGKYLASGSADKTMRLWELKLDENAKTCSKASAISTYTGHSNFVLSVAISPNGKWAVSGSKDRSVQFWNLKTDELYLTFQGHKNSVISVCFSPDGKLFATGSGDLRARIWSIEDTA

[2] = target: T2, S. japonicus Tup11 WD40 domain (301–630) Tyr382Ala (S. japonicus, UniProt B6JV84 301-630, Tyr382Ala)
T2 construct: Tup11, S. japonicus, WD40 domain, amino acids 301-630
T2 sequence (looked up): T1 sequence (looked up) with Y82A, A224L

[3] = target: T3, S. japonicus Tup11 WD40 domain (301–630) Lys575Ala (S. japonicus, UniProt B6JV84 301-630, Lys575Ala)
T3 construct: Tup11, S. japonicus, WD40 domain, amino acids 301-630
T3 sequence (looked up): T1 sequence (looked up) with A224L, K275A

[4] = target: T4, S. japonicus Tup11 WD40 domain (amino acids 301–630), wild type (S. japonicus, UniProt B6JV84 301-630)
T4 construct: Tup11, S. japonicus, WD40 domain, amino acids 301-630; also called Tup11 WT
T4 sequence (looked up): T1 sequence (looked up) with A224L

[5] = target: T5, S. japonicus Tup11 WD40 domain (301–630) Ile601Ala (S. japonicus, UniProt B6JV84 301-630, Ile601Ala)
T5 construct: Tup11, S. japonicus, WD40 domain, amino acids 301-630
T5 sequence (looked up): T1 sequence (looked up) with A224L, I301A

B1: C-terminal region of S. pombe Fep1 (amino acids 319–564) (domain or fragment, UniProt Q10134 319-564, looked up)
chain: AAGEPDNNGKVYYSYGPTQEQSILPLPENKHEGLPPYQNEYVPNGIRANQVVYPGQLVAVGNDSSKQLSESTTSNTDNNGVATANQSNPLGMKFHLPPILPVGESVCLPPRTSAKPRIAEGIASLLNPEEPPSNSDKQPSMSNGPKSEVSPSQSQQAPLIQSSTSPVSLQFPPEVQGSNVDKRNYALNVLSQLRSQHDLMIQELHNLNQHIQQIDEWLRSSDNENMASEHIKSSTPAVVASGALQT
notes: Fep1, GATA-factor, S. pombe, C-terminal region, amino acids 319-564
Question: What does the source list for B1?
Answer: binding result [1]: binds; reduction of binding free energy against wild type [2]: ~1.7 kcal/mol; reduction of binding free energy against wild type [3]: ~1.9 kcal/mol; Kd [4]: ~10 µM; binding result [5]: binds
